Experiment [1] addresses T1, LGR5ΔCT (human LGR5 without the cytoplasmic C-terminal tail) on HEK293 cells (human, UniProt O75473 22-907).
T1 chain: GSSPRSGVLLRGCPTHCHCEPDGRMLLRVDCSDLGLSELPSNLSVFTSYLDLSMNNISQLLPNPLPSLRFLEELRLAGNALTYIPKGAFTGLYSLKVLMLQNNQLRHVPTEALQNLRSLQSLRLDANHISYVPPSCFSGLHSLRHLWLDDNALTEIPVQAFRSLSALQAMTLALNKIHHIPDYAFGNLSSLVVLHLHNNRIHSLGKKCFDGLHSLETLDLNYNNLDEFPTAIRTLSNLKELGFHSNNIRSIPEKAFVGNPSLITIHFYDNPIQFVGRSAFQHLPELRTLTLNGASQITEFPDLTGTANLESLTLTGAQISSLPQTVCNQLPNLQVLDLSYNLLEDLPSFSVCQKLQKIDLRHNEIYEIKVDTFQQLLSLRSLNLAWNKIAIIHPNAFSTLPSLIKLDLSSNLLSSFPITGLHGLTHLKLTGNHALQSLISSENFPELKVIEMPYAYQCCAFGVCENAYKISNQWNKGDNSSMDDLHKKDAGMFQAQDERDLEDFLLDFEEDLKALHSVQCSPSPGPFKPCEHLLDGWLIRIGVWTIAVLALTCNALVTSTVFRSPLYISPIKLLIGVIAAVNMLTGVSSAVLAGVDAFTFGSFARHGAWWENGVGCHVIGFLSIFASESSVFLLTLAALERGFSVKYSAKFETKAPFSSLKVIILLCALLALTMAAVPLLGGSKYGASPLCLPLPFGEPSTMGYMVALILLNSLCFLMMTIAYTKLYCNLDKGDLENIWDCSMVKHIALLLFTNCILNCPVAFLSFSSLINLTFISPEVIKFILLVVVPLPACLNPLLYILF

Experiment [2] has as its target LGR4 (HA-LGR4) over-expressed on HEK293 cells (UniProt Q9BXB1 25-951).

B1: R2Fu-mFc (RSPO2 furin domain fused to monomeric human IgG4-Fc, monovalent) (Fc fusion)
chain: NPICKGCLSCSKDNGCSRCQQKLFFFLRREGMRQYGECLHSCPSGYYGHRAPDMNRCARCRIENCDSCFSKDFCTKCKVGFYLHRGRCFDECPDGFAPLEETMECVE
For B1, in experiment [1], binding was characterised by a dissociation constant (Kd) of 2.3 nM.

B2: R2Fu-bFc (RSPO2 furin domain fused to wild-type IgG1-Fc, bivalent) (Fc fusion)
chain: NPICKGCLSCSKDNGCSRCQQKLFFFLRREGMRQYGECLHSCPSGYYGHRAPDMNRCARCRIENCDSCFSKDFCTKCKVGFYLHRGRCFDECPDGFAPLEETMECVE
As to B2, the values for the Kd in experiment [1] and in experiment [2] were 1.8 nM and 9 nM, respectively.
